This is an account of results in article PMC11912907, “RNA recognition by minimal ProQ from Neisseria meningitidis”.

Where a chain is given by its changes, count along the chain named. Numbers in names are those of the source.

In series [1] the target is T1, ProQ (minimal ProQ, FinO domain with short N- and C-terminal extensions) (Neisseria meningitidis) (UniProt Q9JY98).
T1 sequence: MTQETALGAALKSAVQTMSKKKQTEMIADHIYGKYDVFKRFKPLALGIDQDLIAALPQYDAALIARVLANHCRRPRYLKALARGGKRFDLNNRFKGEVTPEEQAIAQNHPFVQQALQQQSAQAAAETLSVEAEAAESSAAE
As to the kind of experiment: EMSA. The following applies: 25 mM Tris pH 7.5, 150 mM NaCl, 5% glycerol, 1 mM MgCl2, 1 nM 32P-RNA, ProQ up to 50 nM, 30 min at room temperature; 6% native gel at 4 C.

Series [2] deals with T2, ProQ (minimal ProQ, FinO domain with short N- and C-terminal extensions) (Neisseria meningitidis, UniProt Q9JY98 1-141).
T2 sequence: T1 sequence
As to the kind of experiment: EMSA; max bound 88%; 25 mM Tris pH 7.5, 150 mM NaCl, 5% glycerol, 1 mM MgCl2, 1 nM 32P-RNA, ProQ up to 50 nM, 30 min at room temperature; 6% native gel at 4 C. The following applies: protein: recombinant, tags: N-terminal His6-TEV, cleaved, one extra N-terminal Ser remains, label: 5'-32P, terminator hairpin.

In series [3] the target is T2, ProQ (minimal ProQ, FinO domain with …). In words: EMSA; max bound 80%; 25 mM Tris pH 7.5, 150 mM NaCl, 5% glycerol, 1 mM MgCl2, 1 nM 32P-RNA, ProQ up to 50 nM, 30 min at room temperature; 6% native gel at 4 C. The following applies: protein: recombinant; tags: N-terminal His6-TEV, cleaved; one extra N-terminal Ser remains; label: 5'-32P; hairpin, GAAA loop.
Series [4] has the same target. In words: EMSA; max bound 89%; 25 mM Tris pH 7.5, 150 mM NaCl, 5% glycerol, 1 mM MgCl2, 1 nM 32P-RNA, ProQ up to 50 nM, 30 min at room temperature; 6% native gel at 4 C. The note with it: protein: recombinant, tags: N-terminal His6-TEV, cleaved, one extra N-terminal Ser remains, label: 5'-32P, terminator hairpin.
Series [5] shares this target. In words: EMSA; max bound 66%; estimated, not accurately fit; 25 mM Tris pH 7.5, 150 mM NaCl, 5% glycerol, 1 mM MgCl2, 1 nM 32P-RNA, ProQ up to 50 nM, 30 min at room temperature; 6% native gel at 4 C. The following applies: protein: recombinant; tags: N-terminal His6-TEV, cleaved; one extra N-terminal Ser remains; label: 5'-32P; terminator hairpin, 7 nt 3' tail.
Series [6] has the same target. In words: EMSA; max bound 79%; 25 mM Tris pH 7.5, 150 mM NaCl, 5% glycerol, 1 mM MgCl2, 1 nM 32P-RNA, ProQ up to 50 nM, 30 min at room temperature; 6% native gel at 4 C. The note with it: protein: recombinant; tags: N-terminal His6-TEV, cleaved; one extra N-terminal Ser remains; label: 5'-32P; terminator hairpin, 6-U tail.
Series [7] has the same target. In words: EMSA; max bound 90%; 25 mM Tris pH 7.5, 150 mM NaCl, 5% glycerol, 1 mM MgCl2, 1 nM 32P-RNA, ProQ up to 50 nM, 30 min at room temperature; 6% native gel at 4 C. The following applies: protein: recombinant; tags: N-terminal His6-TEV, cleaved; one extra N-terminal Ser remains; label: 5'-32P; terminator hairpin, 5-U tail.
Series [8] has the same target. In words: EMSA; max bound 53%; 25 mM Tris pH 7.5, 150 mM NaCl, 5% glycerol, 1 mM MgCl2, 1 nM 32P-RNA, ProQ up to 50 nM, 30 min at room temperature; 6% native gel at 4 C. The following applies: protein: recombinant; tags: N-terminal His6-TEV, cleaved; one extra N-terminal Ser remains; label: 5'-32P; terminator hairpin, 4-U tail.
For series [9] the target is unchanged. As to the kind of experiment: EMSA; max bound 85%; 25 mM Tris pH 7.5, 150 mM NaCl, 5% glycerol, 1 mM MgCl2, 1 nM 32P-RNA, ProQ up to 50 nM, 30 min at room temperature; 6% native gel at 4 C. The note with it: protein: recombinant; tags: N-terminal His6-TEV, cleaved; one extra N-terminal Ser remains; label: 5'-32P; terminator hairpin, 5-U tail.
Series [10] has the same target. As to the kind of experiment: EMSA; max bound 64%; 25 mM Tris pH 7.5, 150 mM NaCl, 5% glycerol, 1 mM MgCl2, 1 nM 32P-RNA, ProQ up to 50 nM, 30 min at room temperature; 6% native gel at 4 C. The following applies: protein: recombinant; tags: N-terminal His6-TEV, cleaved; one extra N-terminal Ser remains; label: 5'-32P; hairpin, GAAA loop.
Series [11] shares this target. In words: EMSA; max bound 86%; 25 mM Tris pH 7.5, 150 mM NaCl, 5% glycerol, 1 mM MgCl2, 1 nM 32P-RNA, ProQ up to 50 nM, 30 min at room temperature; 6% native gel at 4 C. The note with it: protein: recombinant; tags: N-terminal His6-TEV, cleaved; one extra N-terminal Ser remains; label: 5'-32P.
Series [12] has the same target. In words: EMSA; undetected up to 50 nM ProQ; 25 mM Tris pH 7.5, 150 mM NaCl, 5% glycerol, 1 mM MgCl2, 1 nM 32P-RNA, ProQ up to 50 nM, 30 min at room temperature; 6% native gel at 4 C. The note with it: protein: recombinant; tags: N-terminal His6-TEV, cleaved; one extra N-terminal Ser remains; label: 5'-32P; terminator hairpin, no tail.
The target is the same in series [13]. As to the kind of experiment: EMSA; max bound 81%; 25 mM Tris pH 7.5, 150 mM NaCl, 5% glycerol, 1 mM MgCl2, 1 nM 32P-RNA, ProQ up to 50 nM, 30 min at room temperature; 6% native gel at 4 C. The following applies: protein: recombinant; tags: N-terminal His6-TEV, cleaved; one extra N-terminal Ser remains; label: 5'-32P; terminator hairpin, GAAA loop.
For series [14] the target is unchanged. As to the kind of experiment: EMSA; max bound 53%; Hill fit; 25 mM Tris pH 7.5, 150 mM NaCl, 5% glycerol, 1 mM MgCl2, 1 nM 32P-RNA, ProQ up to 50 nM, 30 min at room temperature; 6% native gel at 4 C. The following applies: protein: recombinant; tags: N-terminal His6-TEV, cleaved; one extra N-terminal Ser remains; label: 5'-32P; terminator hairpin, GAAA loop.

The target is the same in series [15]. As to the kind of experiment: EMSA; max bound 91%; 25 mM Tris pH 7.5, 150 mM NaCl, 5% glycerol, 1 mM MgCl2, 1 nM 32P-RNA, ProQ up to 50 nM, 30 min at room temperature; 6% native gel at 4 C. The note with it: protein: recombinant; tags: N-terminal His6-TEV, cleaved; one extra N-terminal Ser remains; label: 5'-32P; hairpin, GAAA loop.
Series [16] shares this target. As to the kind of experiment: EMSA; max bound 58%; 25 mM Tris pH 7.5, 150 mM NaCl, 5% glycerol, 1 mM MgCl2, 1 nM 32P-RNA, ProQ up to 50 nM, 30 min at room temperature; 6% native gel at 4 C. The following applies: protein: recombinant; tags: N-terminal His6-TEV, cleaved; one extra N-terminal Ser remains; label: 5'-32P; terminator hairpin, 4-U tail.

pnp-5' showed a Kd in [1] of 7.9 nM.
In the case of carA-5', in series [1], the Kd was 1.3 nM.
On the same count and under the same terms, with iga-3' the figure was 0.3 nM.

B1: rpmG-U6AU2 (structured_RNA)
RNA: GGGAUUUCAGUUUGAAAGCAAAGCCUCCGACUGUUCGGAGGCUUUUUUAUU
On to B1, for which the Kd in [2] (9 nt 3' tail) was determined as 0.22 ± 0.26 nM.

B2: rpmG-loop-40 (structured_RNA)
RNA: GGGAUUUCAGUUUGAAAGCAAAGCCUGAAAAGGCUUUUUU
Turning to B2, the Kd in series [3] amounted to 1.2 ± 1.5 nM.

B3: rpmG-U6AU (structured_RNA)
RNA: GGGAUUUCAGUUUGAAAGCAAAGCCUCCGACUGUUCGGAGGCUUUUUUAU
Turning to B3, in series [4] (8 nt 3' tail), the Kd stood at 0.2 ± 0.23 nM.

B4: rpmG-U6A (structured_RNA)
RNA: GGGAUUUCAGUUUGAAAGCAAAGCCUCCGACUGUUCGGAGGCUUUUUUA
B4: in [5], the Kd is under 0.5 nM.

B5: AniS-U6 (structured_RNA)
RNA: GGUUUCCUCUUGAUGUGUGUGUUUGGGUGUGGCUGCCGCCACCCCUUUUUU
For the molecule B5, in [6], the Kd stood at 0.7 ± 0.62 nM.

B6: AniS-U5 (structured_RNA)
RNA: GGUUUCCUCUUGAUGUGUGUGUUUGGGUGUGGCUGCCGCCACCCCUUUUU
Take B6: the Kd in series [7] turned out to be 6.5 ± 1.3 nM.

B7: AniS-U7 (structured_RNA)
RNA: GGUUUCCUCUUGAUGUGUGUGUUUGGGUGUGGCUGCCGCCACCCCUUUUUUU
Take B7: the Kd in series [2] (7-U tail) was 0.82 ± 0.21 nM.

B8: AniS-U4 (structured_RNA)
RNA: GGUUUCCUCUUGAUGUGUGUGUUUGGGUGUGGCUGCCGCCACCCCUUUU
As for B8, the Kd in series [8] was determined as 0.9 ± 0.58 nM.

B9: rpmG-U5 (structured_RNA)
RNA: GGGAUUUCAGUUUGAAAGCAAAGCCUCCGACUGUUCGGAGGCUUUUU
In the case of B9, in [9], the Kd amounted to 0.47 ± 0.27 nM.

B10: rpmG-loop-36 (structured_RNA)
RNA: GGGAUUUCAGUUUGAAAGCAAAGCGAAAGCUUUUUU
With B10, in series [10], the Kd was determined as 0.13 ± 0.14 nM.

B11: intergenic (structured_RNA)
RNA: GGUAAUGCCGAAAGGGGUUUGACGAUGCCGGCGUGCGCUGUCAAACCCUUUUUCU
As to B11, the Kd in [11] is 1.4 ± 1 nM.

B12: AniS-noU (structured_RNA)
RNA: GGUUUCCUCUUGAUGUGUGUGUUUGGGUGUGGCUGCCGCCACCCC
B12: the binding result in series [12] is “no binding”.

B13: rpmG-loop (structured_RNA)
RNA: GGGAUUUCAGUUUGAAAGCAAAGCCUCCGAGAAAUCGGAGGCUUUUUU
For B13, the Kd in [13] is 0.5 ± 0.34 nM.

B14: rpmG-3' (structured_RNA)
RNA: B13 RNA with G31C, A32U, A33G, A34U
For B14, in [4] (6-U 3' tail, 3 U paired with upstream A), the Kd was found to be 1 ± 0.52 nM.

B15: AniS-loop (structured_RNA)
RNA: GGUUUCCUCUUGAUGUGUGUGUUUGGGUGUGGCGAAAGCCACCCCUUUUUUUU
Regarding B15, in series [14], the Kd stood at 0.39 ± 0.18 nM.

B16: rpmG-loop-44 (structured_RNA)
RNA: GGGAUUUCAGUUUGAAAGCAAAGCCUCCGAAAGGAGGCUUUUUU
For the molecule B16, in series [15], the Kd came out at 4 ± 2 nM.

B17: rpmG-U4 (structured_RNA)
RNA: GGGAUUUCAGUUUGAAAGCAAAGCCUCCGACUGUUCGGAGGCUUUU
For B17, the Kd in series [16] turned out to be 2.6 ± 3.5 nM.
